According to PMC8688474 (Nature Communications, 2021):

B1: neutralizing MAb 2H2 (antibody, V domains shown)
VH: QVQLKQSGPSLVQPSQSLSITCTVSGFSLTSYGVHWVRQSPGKGLEWLGVMWRGGNTDYNAAFMSRLSITKDNSKSQVFFKMNSLQTDDTAIYYCAKNGGAHAMDFWGQGTSVTVSS
VL: NIVLTQSPASLAVSLGQRATISCRASESVDSYGNSFLHWYQQKPGQPPKLLIYLASNLESGVPARFSGSGSRTDFTLTIDPVEADDAATYYCQQNNEDPFTFGSGTKLEIK
B2: neutralizing MAb 3C1 (antibody, V domains shown)
VH: EVQLQESGPSLVKPSQTLSLTCSVTGDSITNGYWNWIRKFPGNKLEYMGYISYSGSTYYSPSLKSRISITRDTSKNQHYLQLNSVTSEDTATYYCASDYHGSKYYFDYWGQGTTLTVSS
VL: DIVMTQSHKFMSTSVGHRVSITCKASQDVGNDVAWYQQKPGQSPKLLIYWASTRHTGVPDRFTGSGSGTDFTLTISNVQSEDLADYFCQQYNRYPYTFGGGTKLEIK

Target: T1, WT SARS-CoV-2 RBD protein (SARS-CoV-2, Wuhan-Hu-1 (WT), UniProt P0DTC2)
T1 construct: also called WT RBD
Assay: ELISA
Settings: both partners purified

| Binder | binding result |
| --- | --- |
| B1 | binds |
| B2 | binds |
